Data on 2 substances can be found in patent publication US20190227063A1.

Assay [1] has as its target HLA-A*02:01 in complex with PRAME300-309 peptide …, on T2 cells expressing the PresentER ALY minigene (human). The assay can be described thus: flow cytometry histograms, T2 cells expressing PresentER minigenes. On the technique in general: Flow cytometry measures light scatter and fluorescence of single cells or particles in a stream.
Assay [2] deals with HLA-A*02:01 in complex with WT1 aa126-134 peptide …, on T2 cells expressing the PresentER RMF minigene (human). The assay can be described thus: >.

For “Pr20 TCR mimic (TCRm) monoclonal antibody”, the fluorescence units (FU) in assay [1] was > 1100 FU.

For “ESK1 TCR mimic (TCRm) monoclonal antibody”, the values for the fluorescence units (FU) in assay [2] and in assay [1] were 1000 > and < 1000 FU, respectively.
